Results on two molecules are retold here after US20250136687A1 (SHANDONG SIMCERE BIOPHARMACEUTICAL, published 2025).

Experiment [1] concerns the target T1, recombinant human CD3ε-ECD His protein (human, UniProt P07766 23-126).
T1 construct: extracellular domain; also called human CD3ε-His; CD3ε antigen protein; not shown: His tag
The experiment in a line: ELISA, coated antigen.

Experiment [2] addresses T2, human CD3ε/δ-His (human, UniProt P07766 23-126; P04234 22-105).
T2 construct: Bought recombinant heterodimer with His tag; also called human CD3ε/δ protein
The experiment in a line: ELISA, coated antigen. (In an ELISA, binding on a coated surface is turned into a signal by an enzyme label.)

Experiment [3] deals with T3, human CD3 on the cell surface (Jurkat cells, expanded human T cells, Jurkat-Lucia NFAT cells, human PBMC) (human, UniProt P07766 23-207; P04234 22-171; P09693 23-182).
T3 construct: whole, on cells; Endogenous CD3 within the TCR-CD3 complex on cells (also zeta chains and TCR); the cell type is named under assay
Put plainly: FACS, expanded human T cells. How it is done: (§1) The binding of the chimeric antibodies to CD3 on the cell surface was analyzed by detecting the binding of the antibodies to Jurkat cells and human T cells. Suspension cells Jurkat cells were scale-up cultured in T-75 cell culture flasks to the logarithmic growth phase, the supernatant of the medium was discarded by centrifugation, and the cell pellet was washed 2 times with PBS for later use. The expanded human T cells were washed 2 times with PBS for later use. After counting the cells in the previous step, the cell pellet was resuspended with [PBS+2% (w/w) BSA] blocking solution to 4×10⁶ cells/ml, and added to a 96-well FACS reaction plate at 50 μl/well, and then the chimeric antibody to be tested was added at 50 μl/well, and incubated at 4° C. for 1 h. The cells were centrifuged and washed 3 times with a PBS buffer. […] The cells were centrifuged and washed 5 times with PBS, and FACS (FACS Canto™, purchased from BD Company) was used for detection and result analysis. Data analysis was performed by software (CellQuest) to obtain the mean fluorescence […] (MFI) of the cells. And then software (GraphPad Prism8) was used for analysis, data fitting, and EC50 value calculation. The same method was used to simultaneously detect the binding of the chimeric antibodies to endogenous CD3 negative cells MOLT4 cells.
In general terms: Flow cytometry measures light scatter and fluorescence of single cells or particles in a stream.

For experiment [4], the target named is T1, recombinant human CD3ε-ECD His protein. The experiment in a line: ELISA, coated antigen. How it is done:
(§2) To detect the binding activity of the humanized antibodies to CD3 protein, CD3 protein was diluted with PBS to the final concentration of […], then added to a 96-well ELISA plate at 50 μL/well, and the plate was sealed with a plastic film, and incubated overnight at 4° C. On the next day, the plate was washed 2 times with PBS, and a blocking solution [PBS+2% (v/v) BSA] was added for blocking at room temperature for 2 h. The blocking solution was poured off, and the antibody (initial concentration of 100 nM, and gradient dilution at 1:10) or a negative control antibody was added at 50 µl/well. After incubation at 37° C. for 2 h, the plate was washed 3 times with PBS. […] TMB substrate was added at 50 μl/well, and incubated at room temperature for 10 min, and then a stop solution (1.0 N HCl) was added at 50 μl/well. The OD450 nm values were read by an ELISA microplate reader (Multimode Plate Reader, EnSight, purchased from Perkin Elmer).
The source holds these as a separate data set.

The target in experiment [5] is T2, human CD3ε/δ-His. The experiment in a line: ELISA, coated antigen. How it is done:
as §2
The source holds these as a separate data set.

For experiment [6], the target named is T2, human CD3ε/δ-His. Put plainly: SPR, antibody captured on Protein A chip. (In general: SPR reads the build-up and loss of mass on a sensor chip optically.)
For experiment [7], the target named is T4, cynomolgus monkey CD3 on the surface of expanded monkey T cells (cynomolgus monkey, UniProt Q95LI5 22-198; Q95LI8 22-171; Q95LI7 23-181).
T4 construct: whole, on cells; Endogenous CD3 within the TCR-CD3 complex on T cells expanded from cynomolgus monkey PBMC
Put plainly: FACS, expanded monkey T cells, 4 nM antibody. The method, then: as §1
FACS detection and data analysis were performed on the cryopreserved monkey T cells of Example 2.4 according to the method in Example 5.1.

For experiment [8], the target named is T3, human CD3 on the cell surface (Jurkat …). The experiment in a line: cell-based or functional assay.
For experiment [9] the target is unchanged. Put plainly: FACS, Jurkat cells. How it is done: as §1
For experiment [10] the target is unchanged. The experiment in a line: cell-based or functional assay. The source holds these as a separate data set.

Read-outs that look alike come from different tables or passages of the source.

T3 sequence (P07766 23-207, chain 1 of 3): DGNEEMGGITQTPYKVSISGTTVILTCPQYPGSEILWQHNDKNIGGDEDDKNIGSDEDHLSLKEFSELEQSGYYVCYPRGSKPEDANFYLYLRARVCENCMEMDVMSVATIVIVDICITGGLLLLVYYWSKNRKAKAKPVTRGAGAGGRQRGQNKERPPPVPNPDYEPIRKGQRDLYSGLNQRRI
T3 sequence (P04234 22-171, chain 2 of 3): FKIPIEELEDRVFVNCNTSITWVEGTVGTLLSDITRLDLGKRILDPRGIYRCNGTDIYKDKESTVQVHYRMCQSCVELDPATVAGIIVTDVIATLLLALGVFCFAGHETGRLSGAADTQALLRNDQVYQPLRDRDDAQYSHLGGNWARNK
T3 sequence (P09693 23-182, chain 3 of 3): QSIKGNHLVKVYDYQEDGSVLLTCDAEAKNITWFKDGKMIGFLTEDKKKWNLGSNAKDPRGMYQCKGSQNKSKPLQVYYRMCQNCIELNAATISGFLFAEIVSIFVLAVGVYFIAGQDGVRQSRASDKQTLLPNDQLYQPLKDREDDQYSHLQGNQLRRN
T2 sequence (P07766 23-126, stated change not applied, form in doubt, chain 1 of 2): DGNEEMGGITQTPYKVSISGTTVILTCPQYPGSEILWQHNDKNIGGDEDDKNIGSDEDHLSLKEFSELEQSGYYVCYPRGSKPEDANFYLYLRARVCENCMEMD
T2 sequence (P04234 22-105, stated change not applied, form in doubt, chain 2 of 2): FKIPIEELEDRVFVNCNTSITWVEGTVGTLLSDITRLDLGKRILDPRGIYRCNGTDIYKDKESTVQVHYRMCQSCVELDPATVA
T1 sequence (P07766 23-126): as the sequence (P07766 23-126, stated change not applied, form in doubt, chain 1 of 2) above
T4 sequence (Q95LI5 22-198, chain 1 of 3): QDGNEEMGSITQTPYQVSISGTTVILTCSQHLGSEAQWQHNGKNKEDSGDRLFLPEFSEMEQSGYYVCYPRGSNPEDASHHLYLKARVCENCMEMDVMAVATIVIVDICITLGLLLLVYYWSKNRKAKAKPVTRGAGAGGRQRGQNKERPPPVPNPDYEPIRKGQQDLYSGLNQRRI
T4 sequence (Q95LI8 22-171, chain 2 of 3): as the sequence (P04234 22-171, chain 2 of 3) above, with I5V, N15K, I20V, S32T, D33N, I34N, T64A, S74N, V83L, H141R counted along it
T4 sequence (Q95LI7 23-181, chain 3 of 3): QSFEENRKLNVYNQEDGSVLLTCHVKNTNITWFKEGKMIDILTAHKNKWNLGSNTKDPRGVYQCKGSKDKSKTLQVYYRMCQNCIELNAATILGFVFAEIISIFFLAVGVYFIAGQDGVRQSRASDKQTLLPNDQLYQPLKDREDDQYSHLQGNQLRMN

B1: 40G5c-hIgG1 (antibody, V domains shown)
VH: EVQLVQSGAEVKKPGASVKVSCKASGYTFTNYYIHWVRQAPGQGLEWIGWIYPGDGNTKYNEKFKGRATLTADTSTSTAYLELSSLRSEDTAVYYCARDSYSNYYFDYWGQGTLVTVSS
VL: DIVMTQSPDSLAVSLGERATINCKSSQSLLNSRTRKNYLAWYQQKPGQPPKLLIYWASTRESGVPDRFSGSGSGTDFTLTISSLQAEDVAVYYCTQSFILRTFGQGTKVEIKR
What is called EC50 is the concentration at which the effect is half-maximal. By Kd is commonly meant the free concentration of one partner at which half of the binding sites on the other are occupied at equilibrium, for simple one-to-one binding. One may read the koff as a measure of how fast the partners let go of each other. One may read the kon as the rate constant with which the complex forms. As to B1, the EC50 is 0.22 nM in experiment [1]; 0.36 nM in the experiment with human CD3ε/δ-His [2]; 0.99 nM in experiment [3]; 0.118 nM in experiment [4]; 0.36 nM in the experiment with human CD3ε/δ-His [5]; 0.1 nM in experiment [9]. For the same molecule, the max-OD450 stood at 1.49 OD450 in experiment [1], 2.83 OD450 with human CD3ε/δ-His [2], 3.09 OD450 in experiment [4] and 2.83 OD450 with human CD3ε/δ-His [5]. Moreover, the MFI_Max in experiment [3] was 26500 MFI; in experiment [9] it was 29500 MFI. In the experiment with human CD3ε/δ-His [6], this molecule yielded a Kd of 21.3 nM. The same molecule had a koff with human CD3ε/δ-His [6] of 0.0327 s⁻¹. For the same molecule, in the experiment with human CD3ε/δ-His [6], the kon stood at 1.53e+06 M⁻¹ s⁻¹. Further, the “MFI at antibody concentration 4 nM” value in [7] worked out at 41000 MFI. The “EC50 (nM), luciferase reporter, Jurkat-Lucia NFAT cells” value in [8] turned out to be 22.5 nM; in experiment [10], 5.04 nM. Besides, the “Maximum response value (RLU)” value in experiment [8] is 25400 RLU; in experiment [10], 14300 RLU.

B2: F2B-hIgG1 (antibody, V domains shown)
VH: EVQLVESGGGLVQPGRSLRLSCAASGFTFDDYAMHWVRQAPGKGLEWVSGISWNSGSIGYADSVKGRFTISRDNAKNSLYLQMNSLRAEDTALYYCAKDSRGYGDYRLGGAYWGQGTLVTVSS
VL: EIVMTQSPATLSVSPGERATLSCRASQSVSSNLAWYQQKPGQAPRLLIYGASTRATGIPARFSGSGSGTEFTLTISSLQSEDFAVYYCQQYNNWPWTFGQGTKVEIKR
notes: also called F2Bs
Turning to B2, the max-OD450 in experiment [1] was 0.05 OD450; in the experiment with human CD3ε/δ-His [2] it was 0.16 OD450; in experiment [4], 0.1 OD450; in the experiment with human CD3ε/δ-His [5], 0.16 OD450. For the same molecule, the EC50 in experiment [3] is 5.71 nM; in [9] it was 20.4 nM. In addition, the MFI_Max in experiment [3] was found to be 5080 MFI; in experiment [9], 4860 MFI. In addition, the binding result in experiment [4] is “no binding (tested: 100 nM (initial concentration))”. For the same molecule, the “MFI at antibody concentration 4 nM” value in experiment [7] is 63 MFI. Besides, the “Maximum response value (RLU)” value came to 8220 RLU in [8] and 6560 RLU in experiment [10]. For the same molecule, the “EC50 (nM), luciferase reporter, Jurkat-Lucia NFAT cells” value in [10] turned out to be 7.41 nM.
